Read-outs that look alike come from different tables or passages of the source.
Columns and labels:
[1] = target: T1, HCV ORFs (Gal4-DB fusions) (Hepatitis C virus genotype 1b, UniProt Q9WMX2); type: binding, HCV genotype 1b, isolate con1; details: human protein as prey
T1 construct: expressed in transfected cells; host or cells: Saccharomyces cerevisiae MAV203 (IMAP1) / AH109 (IMAP2)

[2] = test system: HCV ORFs (Gal4-DB fusions); type: binding, HCV genotype 1b, isolate con1; details: human protein listed by gene symbol; the value names the HCV protein it interacts with
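Further: yeast two-hybrid screens using HCV genotype 1b proteins fused to Gal4-DB as baits against prey cDNA libraries from human spleen and foetal brain, IMAP1 via transformation and IMAP2 via mating.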

Molecule	IMAP Y2H IMAP2 (number of IST) ([1]; HCV protein NS3 as bait)	Interaction with viral protein [2]	IMAP Y2H IMAP2 (number of IST) ([1]; HCV protein NS5A as bait)	IMAP Y2H IMAP2 (number of IST) ([1]; HCV protein NS4A as bait)
UBE1C (protein, UniProt Q8TBC4 2-463, looked up) NEDD8-activating enzyme E1 …: ADGEEPEKKRRRIEELLAEKMAVDGGCGDTGDWEGRWNHVKKFLERSGPFTHPDFEPSTESLQFLLDTCKVLVIGAGGLGCELLKNLALSGFRQIHVIDMDTIDVSNLNRQFLFRPKDIGRPKAEVAAEFLNDRVPNCNVVPHFNKIQDFNDTFYRQFHIIVCGLDSIIARRWINGMLISLLNYEDGVLDPSSIVPLIDGGTEGFKGNARVILPGMTACIECTLELYPPQVNFPMCTIASMPRLPEHCIEYVRMLQWPKEQPFGEGVPLDGDDPEHIQWIFQKSLERASQYNIRGVTYRLTQGVVKRIIPAVASTNAVIAAVCATEVFKIATSAYIPLNNYLVFNDVDGLYTYTFEAERKENCPACSQLPQNIQFSPSAKLQEVLDYLTNSASLQMKSPAITATLEGKNRTLYLQSVTSIEERTRPNLSKTLKELGLVDGQELAVADVTTPQTVLFKLHFTS	1	NS3	–	–
ACLY (protein, UniProt P53396 1-1101, looked up) ATP-citrate synthase: MSAKAISEQTGKELLYKFICTTSAIQNRFKYARVTPDTDWARLLQDHPWLLSQNLVVKPDQLIKRRGKLGLVGVNLTLDGVKSWLKPRLGQEATVGKATGFLKNFLIEPFVPHSQAEEFYVCIYATREGDYVLFHHEGGVDVGDVDAKAQKLLVGVDEKLNPEDIKKHLLVHAPEDKKEILASFISGLFNFYEDLYFTYLEINPLVVTKDGVYVLDLAAKVDATADYICKVKWGDIEFPPPFGREAYPEEAYIADLDAKSGASLKLTLLNPKGRIWTMVAGGGASVVYSDTICDLGGVNELANYGEYSGAPSEQQTYDYAKTILSLMTREKHPDGKILIIGGSIANFTNVAATFKGIVRAIRDYQGPLKEHEVTIFVRRGGPNYQEGLRVMGEVGKTTGIPIHVFGTETHMTAIVGMALGHRPIPNQPPTAAHTANFLLNASGSTSTPAPSRTASFSESRADEVAPAKKAKPAMPQDSVPSPRSLQGKSTTLFSRHTKAIVWGMQTRAVQGMLDFDYVCSRDEPSVAAMVYPFTGDHKQKFYWGHKEILIPVFKNMADAMRKHPEVDVLINFASLRSAYDSTMETMNYAQIRTIAIIAEGIPEALTRKLIKKADQKGVTIIGPATVGGIKPGCFKIGNTGGMLDNILASKLYRPGSVAYVSRSGGMSNELNNIISRTTDGVYEGVAIGGDRYPGSTFMDHVLRYQDTPGVKMIVVLGEIGGTEEYKICRGIKEGRLTKPIVCWCIGTCATMFSSEVQFGHAGACANQASETAVAKNQALKEAGVFVPRSFDELGEIIQSVYEDLVANGVIVPAQEVPPPTVPMDYSWARELGLIRKPASFMTSICDERGQELIYAGMPITEVFKEEMGIGGVLGLLWFQKRLPKYSCQFIEMCLMVTADHGPAVSGAHNTIICARAGKDLVSSLTSGLLTIGDRFGGALDAAAKMFSKAFDSGIIPMEFVNKMKKEGKLIMGIGHRVKSINNPDMRVQILKDYVRQHFPATPLLDYALEVEKITTSKKPNLILNVDGLIGVAFVDMLRNCGSFTREEADEYIDIGALNGIFVLGRSMGFIGHYLDQKRLKQGLYRHPWDDISYVLPEHMSM	–	NS5A	1	–
ZMYM2 (protein, UniProt Q9UBW7 1-1377, looked up) Zinc finger MYM-type protein 2: MDTSSVGGLELTDQTPVLLGSTAMATSLTNVGNSFSGPANPLVSRSNKFQNSSVEDDDDVVFIEPVQPPPPSVPVVADQRTITFTSSKNEELQGNDSKITPSSKELASQKGSVSETIVIDDEEDMETNQGQEKNSSNFIERRPPETKNRTNDVDFSTSSFSRSKVNAGMGNSGITTEPDSEIQIANVTTLETGVSSVNDGQLENTDGRDMNLMITHVTSLQNTNLGDVSNGLQSSNFGVNIQTYTPSLTSQTKTGVGPFNPGRMNVAGDVFQNGESATHHNPDSWISQSASFPRNQKQPGVDSLSPVASLPKQIFQPSVQQQPTKPVKVTCANCKKPLQKGQTAYQRKGSAHLFCSTTCLSSFSHKPAPKKLCVMCKKDITTMKGTIVAQVDSSESFQEFCSTSCLSLYEDKQNPTKGALNKSRCTICGKLTEIRHEVSFKNMTHKLCSDHCFNRYRMANGLIMNCCEQCGEYLPSKGAGNNVLVIDGQQKRFCCQSCVSEYKQVGSHPSFLKEVRDHMQDSFLMQPEKYGKLTTCTGCRTQCRFFDMTQCIGPNGYMEPYCSTACMNSHKTKYAKSQSLGIICHFCKRNSLPQYQATMPDGKLYNFCNSSCVAKFQALSMQSSPNGQFVAPSDIQLKCNYCKNSFCSKPEILEWENKVHQFCSKTCSDDYKKLHCIVTYCEYCQEEKTLHETVNFSGVKRPFCSEGCKLLYKQDFARRLGLRCVTCNYCSQLCKKGATKELDGVVRDFCSEDCCKKFQDWYYKAARCDCCKSQGTLKERVQWRGEMKHFCDQHCLLRFYCQQNEPNMTTQKGPENLHYDQGCQTSRTKMTGSAPPPSPTPNKEMKNKAVLCKPLTMTKATYCKPHMQTKSCQTDDTWRTEYVPVPIPVPVYIPVPMHMYSQNIPVPTTVPVPVPVPVFLPAPLDSSEKIPAAIEELKSKVSSDALDTELLTMTDMMSEDEGKTETTNINSVIIETDIIGSDLLKNSDPETQSSMPDVPYEPDLDIEIDFPRAAEELDMENEFLLPPVFGEEYEEQPRPRSKKKGAKRKAVSGYQSHDDSSDNSECSFPFKYTYGVNAWKHWVKTRQLDEDLLVLDELKSSKSVKLKEDLLSHTTAELNYGLAHFVNEIRRPNGENYAPDSIYYLCLGIQEYLCGSNRKDNIFIDPGYQTFEQELNKILRSWQPSILPDGSIFSRVEEDYLWRIKQLGSHSPVALLNTLFYFNTKYFGLKTVEQHLRLSFGTVFRHWKKNPLTMENKACLRYQVSSLCGTDNEDKITTGKRKHEDDEPVFEQIENTANPSRCPVKMFECYLSKSPQNLNQRMDVFYLQPECSSSTDSPVWYTSTSLDRNTLENMLVRVLLVKDIYDKDNYELDEDTD	2	NS3	–	–
ARFIP1 (protein, UniProt P53367 2-373, looked up) Arfaptin-1: AQESPKNSAAEIPVTSNGEVDDSREHSFNRDLKHSLPSGLGLSETQITSHGFDNTKEGVIEAGAFQGSPAPPLPSVMSPSRVAASRLAQQGSDLIVPAGGQRTQTKSGPVILADEIKNPAMEKLELVRKWSLNTYKCTRQIISEKLGRGSRTVDLELEAQIDILRDNKKKYENILKLAQTLSTQLFQMVHTQRQLGDAFADLSLKSLELHEEFGYNADTQKLLAKNGETLLGAINFFIASVNTLVNKTIEDTLMTVKQYESARIEYDAYRTDLEELNLGPRDANTLPKIEQSQHLFQAHKEKYDKMRNDVSVKLKFLEENKVKVLHNQLVLFHNAIAAYFAGNQKQLEQTLKQFHIKLKTPGVDAPSWLEEQ	–	NS5A	9	–
CCDC100 (protein, UniProt Q8N960 1-986, looked up) Centrosomal protein of 120 kDa: MVSKSDQLLIVVSILEGRHFPKRPKHMLVVEAKFDGEQLATDPVDHTDQPEFATELAWEIDRKALHQHRLQRTPIKLQCFALDPVTSAKETIGYIVLDLRTAQETKQAPKWYQLLSNKYTKFKSEIQISIALETDTKPPVDSFKAKGAPPRDGKVPAILAGLDPRDIVAVLNEEGGYHQIGPAEYCTDSFIMSVTIAFATQLEQLIPCTMKLPERQPEFFFYYSLLGNDVTNEPFNDLINPNFEPERASVRIRSSVEILRVYLALQSKLQIHLCCGDQSLGSTEIPLTGLLKKGSTEINQHPVTVEGAFTLDPPNRAKQKLAPIPVELAPTVGVSVALQREGIDSQSLIELKTQNEHEPEHSKKKVLTPIKEKTLTGPKSPTVSPVPSHNQSPPTKDDATESEVESLQYDKDTKPNPKASSSVPASLAQLVTTSNASEVASGQKIAVPATSHHFCFSIDLRSIHALEIGFPINCILRYSYPFFGSAAPIMTNPPVEVRKNMEVFLPQSYCAFDFATMPHQLQDTFLRIPLLVELWHKDKMSKDLLLGIARIQLSNILSSEKTRFLGSNGEQCWRQTYSESVPVIAAQGSNNRIADLSYTVTLEDYGLVKMREIFISDSSQGVSAVQQKPSSLPPAPCPSEIQTEPRETLEYKAALELEMWKEMQEDIFENQLKQKELAHMQALAEEWKKRDRERESLVKKKVAEYTILEGKLQKTLIDLEKREQQLASVESELQREKKELQSERQRNLQELQDSIRRAKEDCIHQVELERLKIKQLEEDKHRLQQQLNDAENKYKILEKEFQQFKDQQNNKPEIRLQSEINLLTLEKVELERKLESATKSKLHYKQQWGRALKELARLKQREQESQMARLKKQQEELEQMRLRYLAAEEKDTVKTERQELLDIRNELNRLRQQEQKQYQDSTEIASGKKDGPHGSVLEEGLDDYLTRLIEERDTLMRTGVYNHEDRIISELDRQIREILAKSNASN	–	NS5A	1	–
TRAF3IP3 (protein, UniProt Q9Y228 1-551, looked up) TRAF3-interacting …: MISPDPRPSPGLARWAESYEAKCERRQEIRESRRCRPNVTTCRQVGKTLRIQQREQLQRARLQQFFRRRNLELEEKGKAQHPQAREQGPSRRPGQVTVLKEPLSCARRISSPREQVTGTSSEVFPAQHPPPSGICRDLSDHLSSQAGGLPPQDTPIKKPPKHHRGTQTKAEGPTIKNDASQQTNYGVAVLDKEIIQLSDYLKEALQRELVLKQKMVILQDLLSTLIQASDSSWKGQLNEDKLKGKLRSLENQLYTCTQKYSPWGMKKVLLEMEDQKNSYEQKAKESLQKVLEEKMNAEQQLQSTQRSLALAEQKCEEWRSQYEALKEDWRTLGTQHRELESQLHVLQSKLQGADSRDLQMNQALRFLENEHQQLQAKIECLQGDRDLCSLDTQDLQDQLKRSEAEKLTLVTRVQQLQGLLQNQSLQLQEQEKLLTKKDQALPVWSPKSFPNEVEPEGTGKEKDWDLRDQLQKKTLQLQAKEKECRELHSELDNLSDEYLSCLRKLQHCREELNQSQQLPPRRQCGRWLPVLMVVIAAALAVFLANKDNLMI	–	NS4A	–	1
TMEM63B (protein, UniProt Q5T3F8 1-832, looked up) Mechanosensitive cation …: MLPFLLATLGTTALNNSNPKDYCYSARIRSTVLQGLPFGGVPTVLALDFMCFLALLFLFSILRKVAWDYGRLALVTDADRLRRQERDRVEQEYVASAMHGDSHDRYERLTSVSSSVDFDQRDNGFCSWLTAIFRIKDDEIRDKCGGDAVHYLSFQRHIIGLLVVVGVLSVGIVLPVNFSGDLLENNAYSFGRTTIANLKSGNNLLWLHTSFAFLYLLLTVYSMRRHTSKMRYKEDDLVKRTLFINGISKYAESEKIKKHFEEAYPNCTVLEARPCYNVARLMFLDAERKKAERGKLYFTNLQSKENVPTMINPKPCGHLCCCVVRGCEQVEAIEYYTKLEQKLKEDYKREKEKVNEKPLGMAFVTFHNETITAIILKDFNVCKCQGCTCRGEPRPSSCSESLHISNWTVSYAPDPQNIYWEHLSIRGFIWWLRCLVINVVLFILLFFLTTPAIIITTMDKFNVTKPVEYLNNPIITQFFPTLLLWCFSALLPTIVYYSAFFEAHWTRSGENRTTMHKCYTFLIFMVLLLPSLGLSSLDLFFRWLFDKKFLAEAAIRFECVFLPDNGAFFVNYVIASAFIGNAMDLLRIPGLLMYMIRLCLARSAAERRNVKRHQAYEFQFGAAYAWMMCVFTVVMTYSITCPIIVPFGLMYMLLKHLVDRYNLYYAYLPAKLDKKIHSGAVNQVVAAPILCLFWLLFFSTMRTGFLAPTSMFTFVVLVITIVICLCHVCFGHFKYLSAHNYKIEHTETDTVDPRSNGRPPTAAAVPKSAKYIAQVLQDSEVDGDGDGAPGSSGDEPPSSSSQDEELLMPPDALTDTDFQSCEDSLIENEIHQ	1	NS3	–	–
